Laboratory results published in patent US20230272099A1 (Chugai, published 2023).
Positions count from the first letter of the chain named.

T1: human FcgRIIa type R extracellular domain (human, UniProt P12318 34-217)
T1 construct: extracellular domain; also called hFcgRIIaR
T1 sequence (looked up): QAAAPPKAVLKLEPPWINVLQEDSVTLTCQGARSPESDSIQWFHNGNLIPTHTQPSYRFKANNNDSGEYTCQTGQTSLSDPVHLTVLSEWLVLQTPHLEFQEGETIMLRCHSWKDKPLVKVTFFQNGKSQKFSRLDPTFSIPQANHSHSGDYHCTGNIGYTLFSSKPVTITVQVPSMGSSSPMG

T2: human FcgRIIb extracellular domain (human, UniProt P31994 43-217)
T2 construct: extracellular domain; also called hFcgRIIb
T2 sequence (looked up): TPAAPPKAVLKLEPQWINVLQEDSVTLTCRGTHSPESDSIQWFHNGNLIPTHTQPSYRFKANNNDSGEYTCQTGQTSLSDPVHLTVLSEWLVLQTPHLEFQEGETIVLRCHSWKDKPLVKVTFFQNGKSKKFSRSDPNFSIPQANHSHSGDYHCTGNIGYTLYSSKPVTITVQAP

T3: human FcgRIIa type H extracellular domain (human, UniProt P12318 34-217)
T3 construct: extracellular domain; also called hFcgRIIaH
T3 sequence (looked up): T1 sequence (looked up) with R134H

B1: A375-SCF027/B167-Lamlib (antibody, human IgG1, lambda)
heavy: EVQLVESGGGLVKPGGSLRLSCAASGFTFSTFTMNWVRQAPGKGLEWVSSISSKSTYIEYADSFKVRFTISRDNAKNSLYLQMNSLRAEDTAVYYCARYGAKNFLNWVFDYWGQGTLVTVSSASTKGPSVFPLAPSSKSTSGGTAALGCLVKDYFPEPVTVSWNSGALTSGVHTFPAVLQSSGLYSLSSVVTVPSSSLGTQTYICNVNHKPSNTKVDKKVEPKSCDKTHTCPPCPAPEYLGGDSVFLFPPKPKDVLMISRTPEVTCVVIDVSHEDPEVKFNWYVDGVEVHNAKTKPREEQYNSTYRVVSVLPVLHQDWLNGKEYKCKVSNKALPKPIEKTISKAKGQRREPQVYTLPPSREEMTKNQVSLTCLVKGFYPSDIAVEWESNGQPENNYKTTPPVLDSDGSFFLYSKLTVKKSRWQQGNVFSCSVMHEALHNHYTQKSLSLSP
light: QSALTQPPSASGSPGQTVTISCTGTRYDVGYYEYVSWYQQHPGKAPKLMIYETSKRLSGVPDRFSGSKSGNTASLTVSGLQAEDEADYYCSSYRYEHQVSFGGGTKLTVLGQPKAAPSVTLFPPSSEELQANKATLVCLISDFYPGAVTVAWKADSSPVKAGVETTTPSKQSNNKYAASSYLSLTPEQWKSHRSYSCQVTHEGSTVEKTVAPTECS
B2: A375-SCF030/B167-Lamlib (antibody, human IgG1, lambda)
heavy: EVQLVESGGGLVKPGGSLRLSCAASGFTFSTFTMNWVRQAPGKGLEWVSSISSKSTYIEYADSFKVRFTISRDNAKNSLYLQMNSLRAEDTAVYYCARYGAKNFLNWVFDYWGQGTLVTVSSASTKGPSVFPLAPSSKSTSGGTAALGCLVKDYFPEPVTVSWNSGALTSGVHTFPAVLQSSGLYSLSSVVTVPSSSLGTQTYICNVNHKPSNTKVDKKVEPKSCDKTHTCPPCPAPELWNGPSVFLFPPKPKDTLMISRTPEVTCVVVDVSDEDPEVKFNWYVDGVEVHNAKTKPREELYNSTYRVVSVLTVLHRDWLNGKEYKCKVSNTALPKPIEKTISKAKGQRREPQVYTLPPSREEMTKNQVSLTCLVKGFYPSDIAVEWESNGQPENNYKTTPPVLDSDGSFFLYSKLTVDKSRWQQGNVFSCSVMHEALHNHYTQKSLSLSP
light: B1 light
B3: A375-SCF028/B167-Lamlib (antibody, human IgG1, lambda)
heavy: B1 heavy with G242D, I269V
light: B1 light
B4: A375-SCF032/B167-Lamlib (antibody, human IgG1, lambda)
heavy: B1 heavy with Q316R, K418D
light: B1 light

Target: T4, human FcgRIIIa V158 extracellular domain (human, UniProt P08637 17-208)
T4 construct: extracellular domain; also called hFcgRIIIaV
T4 sequence (P08637 17-208 F176V): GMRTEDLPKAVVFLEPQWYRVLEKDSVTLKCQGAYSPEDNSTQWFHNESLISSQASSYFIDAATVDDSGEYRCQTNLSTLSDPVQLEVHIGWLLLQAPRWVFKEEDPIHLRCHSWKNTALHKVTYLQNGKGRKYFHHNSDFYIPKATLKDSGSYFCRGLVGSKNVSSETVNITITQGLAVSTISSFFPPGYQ
Experiment: SPR 25C
Description: (§1) Biacore T200 (GE Healthcare) was used to evaluate the binding activity to the respective human Fcγ receptor (hereafter referred to as FcγR). Measurement was performed at 25° C. using 50 mM phosphate, 150 mM NaCl, 0.05 w/v %-P20, pH 7.4 as buffer. About 1000 RU of antibody was captured using a sensor chip immobilized with CaptureSelect™ Human Fab-lambda Kinetics Biotin Conjugate (Thermo Fisher Scientific) as a molecule for ligand capturing. Human FcγR was diluted to 8 nM for FcγRIa and 1000 nM for other FcγR in the measurement buffer, and it was interacted to the captured antibody. The binding activity of each antibody to FcγR was assessed by calculating the binding amount of FcγR (RU) per unit amount of antibody using Biacore T200 Evaluation Software 2.0.

binding per 1RU antibody [RU]	relative binding (A375-G1T3/B167-Lamlib=1)	Binder
-0.0006	-0.01	B1
0.002	0.03	B2
-0.001	-0.01	B3
-0.0007	-0.01	B4

Target: T5, human FcgRIa extracellular domain (human, UniProt P12314 16-292)
T5 construct: extracellular domain; also called hFcgRIa
T5 sequence (P12314 16-292): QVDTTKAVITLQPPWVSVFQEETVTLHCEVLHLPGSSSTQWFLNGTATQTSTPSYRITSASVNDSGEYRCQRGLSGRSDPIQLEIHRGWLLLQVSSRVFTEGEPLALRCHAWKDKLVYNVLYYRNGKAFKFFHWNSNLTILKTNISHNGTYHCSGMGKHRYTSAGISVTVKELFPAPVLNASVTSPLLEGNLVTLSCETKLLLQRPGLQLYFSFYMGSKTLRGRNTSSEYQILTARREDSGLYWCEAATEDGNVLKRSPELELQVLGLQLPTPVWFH
Experiment: SPR 25C
Description: as §1

binding per 1RU antibody [RU]	relative binding (A375-G1T3/B167-Lamlib=1)	Binder
0.0044	0.05	B1
0.002	0.02	B2
0.0027	0.03	B3
0.0049	0.06	B4

Target: T1, human FcgRIIa type R extracellular …
Experiment: SPR 25C
Description: as §1

binding per 1RU antibody [RU]	relative binding (A375-G1T3/B167-Lamlib=1)	Binder
0.0058	0.12	B1
0.0532	1.15	B2
0.0299	0.64	B3
-0.0004	-0.01	B4

Target: T2, human FcgRIIb extracellular domain
Experiment: SPR 25C
Description: as §1

binding per 1RU antibody [RU]	relative binding (A375-G1T3/B167-Lamlib=1)	Binder
0.0766	6.99	B1
0.0532	4.85	B2
0.0995	9.08	B3
0.0782	7.14	B4

Target: T6, human FcgRIIIa F158 extracellular domain (human, UniProt P08637 17-208)
T6 construct: extracellular domain; also called hFcgRIIIaF
T6 sequence (P08637 17-208): as the sequence (P08637 17-208 F176V) above, with V160F counted along it
Experiment: SPR 25C
Description: as §1

binding per 1RU antibody [RU]	relative binding (A375-G1T3/B167-Lamlib=1)	Binder
-0.0005	-0.02	B1
0.0017	0.08	B2
-0.0009	-0.04	B3
-0.0007	-0.03	B4

Target: T3, human FcgRIIa type H extracellular …
Experiment: SPR 25C
Description: as §1

binding per 1RU antibody [RU]	relative binding (A375-G1T3/B167-Lamlib=1)	Binder
0.0031	0.06	B1
0.0533	0.94	B2
0.0101	0.18	B3
0.003	0.05	B4

Target: human FcRn (human, UniProt P55899 24-290; P61769 21-119)
Experiment: SPR 25C pH 6.0, steady state
Description: Biacore T200 (GE Healthcare) was used to assess the binding activity to human FcRn. Measurement was performed at 25° C. using 50 mM phosphate, 150 mM NaCl, 0.05 w/v %-P20, pH 6.0 as buffer. Human FcRn proteins used for this determination were prepared by the procedure described in WO2010107110. About 400 RU of antibody was captured using a sensor chip immobilized with CaptureSelect™ Human Fab-lambda Kinetics Biotin Conjugate (Thermo Fisher Scientific) as a molecule for ligand capturing, followed by the binding of human FcRn diluted in measuring buffer. The activity of the respective antibodies to bind FcRn was assessed by calculating KD(mol/L) by the steady-state model using Biacore T200 Evaluation Software 2.0.

Kd [nM]	Binder
1330	B1
863	B2
1270	B3
966	B4
